The results in this text go back to patent US20130251719A1.

For this assay, the target named is PCV2-ORF2-antigens coated on ELISA plates (porcine circovirus type 2 (PCV2)). Description: competitive ELISA on PCV2-ORF2-antigens, competitor HRP-conjugated anti-PCV2 mab; residual signal of the mab.

For the substance “positive control of commercialized testkit (Ingenasa)”, the OD was 0.343 OD at 450 nm.
